{"source": "patent US20260184773A1", "about": "“THERAPEUTIC SINGLE DOMAIN ANTIBODY” (priority 2021, published 2026)", "key": {"PANC-1 tumors": {"system": "PANC-1 tumors", "details": "PANC-1 xenograft, intraperitoneal for 14 days"}, "[1]": {"system": "tSTAT3, pSTAT3 and PD-L1 in MDA-MB-231 cells", "assay": "Immunoblot (slot blot) of tSTAT3, pSTAT3 and PD-L1", "assay_type": "cell-based, human", "details": "MDA-MB-231, 3, 6 and 24 hours, β-actin normalized, 50-100 ug/ml"}, "ENBOV (Ebola) in HFF": {"system": "ENBOV (Ebola) in HFF", "assay_type": "cell-based, Ebola virus"}, "ENBOV (Ebola) in HeLa": {"system": "ENBOV (Ebola) in HeLa", "assay_type": "cell-based, Ebola virus"}, "Zika in Vero": {"system": "Zika in Vero", "assay_type": "cell-based, Zika virus"}, "HIV-1 RT": {"biological_target": "HIV-1 RT (Human immunodeficiency virus type 1 group M subtype B, UniProt P04585)", "details": "read-out: Binding affinity (KD)"}, "MDA-MB-231 cells": {"system": "MDA-MB-231 cells", "assay": "Cell penetration by immunofluorescence/confocal microscopy", "assay_type": "cell-based, human"}}, "data": [{"molecule": "Nc1ccn([C@@H]2O[C@H](CO)[C@@H](O)C2(F)F)c(=O)n1", "note": "[Gemcitabine, gemcitabine, reference compound]", "values": [{"measurement": "% Inhibition of Control, Day 12", "setting": "PANC-1 tumors; Day 12", "result": 19.51, "unit": "%"}, {"measurement": "% Inhibition of Control, Day 15", "setting": "PANC-1 tumors; Day 15", "result": 23.17, "unit": "%"}, {"measurement": "% Inhibition of Control, Day 19", "setting": "PANC-1 tumors; Day 19", "result": 23.26, "unit": "%"}, {"measurement": "% Inhibition of Control, Day 22", "setting": "PANC-1 tumors; Day 22 (end of the study)", "result": 14.93, "unit": "%"}]}, {"molecule": "Cc1ccc(S(=O)(=O)OCC(=O)Nc2ccc(C(=O)O)c(O)c2)cc1", "note": "[S3I-201, reference compound]", "values": [{"measurement": "Levels of tSTAT3, pSTAT3 and PD-L1", "setting": "[1]", "result": "decreased"}]}, {"molecule": "SBT-106 (protein) VHH: EVQLVESGGGSVQAGGSLRLSCAASVYSYNTNCMGWFRQAPGKEREGVAVIYAAGGLTYYADSVKGRFTISQENGKNTVYLTMNRLKPEDTAMYYCAAKRWCSSWNRGEEYNYWGQGTQVTVSS", "values": [{"measurement": "Comment", "setting": "ENBOV (Ebola) in HFF", "result": "Does not inhibit Ebola virus"}, {"measurement": "EC50 [μM]", "setting": "ENBOV (Ebola) in HFF", "result": "No"}, {"measurement": "EC50", "setting": "ENBOV (Ebola) in HeLa", "result": 3490, "unit": "nM"}, {"measurement": "EC50 [μM]", "setting": "Zika in Vero", "result": "No"}]}, {"molecule": "SBT-107: anti-HIV-1 Reverse Transcriptase (RT) VHH, SEQ ID NO. 4 (protein, Camelid) VHH: MGDVQLVESGGDSVRAGGSLQLSCKASGYTYNSRVDIRSMGWFRQYPGKEREGVATINIRNSVTYYADSVKGRFTISQDNAKNTVYLQMNALKPEDTAMYYCALSDRFAAQVPARYGIRPSDYNYWGEGTLVTVSSSSGLE", "values": [{"measurement": "Kd", "setting": "HIV-1 RT", "result": 3.85, "unit": "nM"}, {"measurement": "Intracellular staining/localization of VHH", "setting": "MDA-MB-231 cells", "result": "no intracellular staining"}]}]}
